B1: TBC1D10A (parent)
chain: WCLVQICEKYLPGYYSEKLEAIQL
B2: RAB22A (parent)
chain: FVEDSFDPNINPTIGASFMTKTVQ

Variants of: B1
Assay: protein stability index of a GFP-peptide fusion (GPS, HEK-293T) (PSI 1-6); higher = more stable
Settings: c terminus: a fixed tail appended
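Also: lentivirally expressed fusions sorted by FACS into six bins by GFP to DsRed ratio, PSI derived from sequencing read proportions per bin multiplied by bin number.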

Variant	protein stability index
E20S	2.64
E20W	1.74
E20H	3.07
E20D	1.79
E20R	1.8
E20T	1.47
E20A	2.21
Y14K	3.06
Y14P	2.61
Y14N	3.59
Y14D	3.02
Y14V	3.94
I6K	2.41
I6C	3.08
I6G	1.73
A21C	4.65
A21H	3.56
A21R	2.99
A21E	3.38
A21G	2.02
A21M	3.73
A21P	3.77
A21L	4.51

Variant	protein stability index
A21T	2.15
A21Q	2.37
I22S	1.72
I22K	2.86
I22Q	2.4
I22M	2.21
I22L	4.01
I22D	3.23
I22G	2.35
I22T	2.67
I22E	3.23
I22N	1.3
G13M	3.53
G13A	3.16
G13K	2.91
G13W	2.7
G13C	1.5
G13S	2.02
Y10W	4.21
Y10K	2.62
Y10Q	2.39
Y10V	1.61
Y10P	2.35

Variant	protein stability index
Y10I	1.18
Y10G	4.89
P12W	2.32
P12T	1.62
P12M	1.77
P12N	4.27
P12Y	2.66
P12K	2.12
L11I	3.03
L11E	2.65
L11C	2.72
L11S	2.68
E8Y	3.51
E8Q	4.87
E8M	2.81
E8K	4.48
E8C	2.85
E8A	2.95
L3D	1.29
L3P	1.5
L3N	1.88
L3C	3.05
L3G	3.3

Variant	protein stability index
L3W	1.02
L3H	1.87
E17V	3.99
E17P	2.03
E17K	1.66
E17C	2.56
E17Q	1.94
E17I	2.74
E17H	1.77
E17L	3.48
V4M	3.23
V4T	2.83
V4N	1.57
V4I	2.23
V4G	2.45
V4H	1.59
V4P	1.73
V4Q	1.48
S16P	2.1
S16E	4.03
S16W	3.94
S16H	1.6
S16Y	2.7

Variant	protein stability index
Q5K	1.71
Q5M	2.16
Q5S	2.72
Q5V	4.85
Q5G	3.13
Q5P	2.69
Q5L	3.52
Q5F	2.92
C2N	3.07
C2G	2.79
C2P	1.86
C2R	3.28
C2E	1.01
C2F	1.81
L19C	4.85
L19Q	3.88
L19N	3.63
L19E	4.16
L19P	1.99
L19V	2.92
K18Q	1.91
K18I	2.1
K18T	2

Variant	protein stability index
K18C	3.08
K18D	1.92
K18H	3.99
K18W	3.09
K9A	1.11
K9P	2.17
K9H	2.65
K9C	4.4
K9F	3.33
Y15W	2.85
Y15F	1.24
Y15C	2.35
Q23I	3.3
Q23T	5.09
Q23N	3.14
Q23R	2.52
Q23S	3.29
Q23W	2.58
Q23F	3.75
Q23E	2.44
Q23K	2.75
Q23H	2.13
Q23V	2.11

Variant	protein stability index
Q23M	2.93
C7M	2.57
C7N	3.08
C7K	2.9
C7R	3.73
C7Y	3.39
C7T	3.5
C7L	3.68
C7D	2.31
L24V	2.38
L24A	3
L24T	2.55
L24D	2.69
L24H	1.14
L24K	3.14
W1Q	1.07
W1R	2.22
W1V	2.6
W1T	3.45
W1H	2.83

Variants of: B2
Assay: as above
Settings: c terminus: a fixed tail appended

Variant	protein stability index
Q24T	2.01
Q24P	2.45
Q24L	2.19
Q24S	2.82
Q24M	1.71
Q24N	2.28
Q24V	2.24
Q24Y	2.98
Q24R	2.38
